This note sets out measurements from patent publication US20190062438A1 (CSL, published 2019).

The target in experiment [1] is T1, human CD131 (human, UniProt P32927 17-897).
T1 sequence: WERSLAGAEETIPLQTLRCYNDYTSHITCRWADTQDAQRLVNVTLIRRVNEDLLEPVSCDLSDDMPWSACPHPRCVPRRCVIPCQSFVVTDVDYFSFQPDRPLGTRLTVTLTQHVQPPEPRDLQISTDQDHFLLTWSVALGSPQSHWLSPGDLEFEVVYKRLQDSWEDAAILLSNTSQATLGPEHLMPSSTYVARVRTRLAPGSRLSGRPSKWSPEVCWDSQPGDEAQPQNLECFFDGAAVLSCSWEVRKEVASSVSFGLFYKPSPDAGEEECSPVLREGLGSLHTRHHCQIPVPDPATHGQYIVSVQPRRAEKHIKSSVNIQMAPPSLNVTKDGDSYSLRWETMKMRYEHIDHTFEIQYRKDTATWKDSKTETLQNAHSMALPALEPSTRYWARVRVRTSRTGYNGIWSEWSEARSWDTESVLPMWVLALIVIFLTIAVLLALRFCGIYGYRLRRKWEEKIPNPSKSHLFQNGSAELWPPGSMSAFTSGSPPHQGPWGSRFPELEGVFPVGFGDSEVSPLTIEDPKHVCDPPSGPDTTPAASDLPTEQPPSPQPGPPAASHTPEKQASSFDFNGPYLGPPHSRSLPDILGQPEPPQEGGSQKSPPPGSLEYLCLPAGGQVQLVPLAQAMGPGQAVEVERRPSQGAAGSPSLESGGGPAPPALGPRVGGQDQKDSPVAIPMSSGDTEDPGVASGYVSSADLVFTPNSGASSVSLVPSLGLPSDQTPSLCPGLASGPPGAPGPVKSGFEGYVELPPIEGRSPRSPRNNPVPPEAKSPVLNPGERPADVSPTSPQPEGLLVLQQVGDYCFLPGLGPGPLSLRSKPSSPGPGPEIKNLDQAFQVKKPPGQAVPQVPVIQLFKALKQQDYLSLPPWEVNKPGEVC
Briefly: cell-based or functional assay.

The target in experiment [2] is T1, human CD131. Put plainly: cell-based or functional assay. This is another data set of the same source.

Positions count from the first letter of the chain named. Read-outs that look alike come from different tables or passages of the source.

B1: 9A2-VR5 (antibody, V domains shown)
VH: EVQLLESGGGLVQPGGSLRLSCAASGFTFSHYHMLWVRQAPGKGLEWVSSIRSSGGFTYYADSVKGRFTISRDNSKNTLYLQMNSLRAEDTAVYYCARFYDSFFDIWGQGTMVTVSS
VL: DIQMTQSPSSVSASVGDRVTITCRASQGIRPFVAWYQQKPGKAPKLLIYAASSLQSGVPSRFSGSGSGTDFTLTISSLQPEDFATYYCQQANSFPITFGQGTRLEIKR
Consider B1, for which the “IC50 GM-CSF, TF-1 proliferation” value with human CD131 [1] was found to be 87 nM.

B2: 9A2-VR35 (antibody, V domains shown)
VH: B1 VH with R52N, S53G, S54F, G56R, F57N
VL: B1 VL with R30S, P31S, F32W, V33L
With B2, the “IC50 GM-CSF, TF-1 proliferation” value in the experiment with human CD131 [1] stood at 76 nM.

B3: 9A2-VR11 (antibody, V domains shown)
VH: B1 VH
VL: B1 VL with I29V, A34S
As to B3, the “IC50 GM-CSF, TF-1 proliferation” value with human CD131 [1] came out at 353 nM.

B4: 9A2-VR45 (antibody, V domains shown)
VH: B1 VH with D101S, S102D, F103N
VL: B1 VL with R30S, P31S, F32W, V33L
Regarding B4, the “IC50 GM-CSF, TF-1 proliferation” value with human CD131 [1] came out at 88.7 nM.

B5: 9A2-VR12 (antibody, V domains shown)
VH: B1 VH
VL: B1 VL with A34S
Take B5: the “IC50 GM-CSF, TF-1 proliferation” value with human CD131 [1] came to 198 nM.

B6: 9A2-VR6 (antibody, V domains shown)
VH: B1 VH
VL: B1 VL with I29V, A34N
Regarding B6, the “IC50 GM-CSF, TF-1 proliferation” value with human CD131 [1] amounted to 250 nM.

B7: 9A2-VR20 (antibody, V domains shown)
VH: B1 VH with S30N, H33R, M34V, L35H
VL: B1 VL with R30S, P31S, F32W, V33L
As for B7, the “IC50 GM-CSF, TF-1 proliferation” value with human CD131 [1] was found to be 79.3 nM.

B8: 9A2-VR14 (antibody, V domains shown)
VH: B1 VH
VL: B1 VL with R30S, P31S, F32W, V33L, Q89G, Q90K, A91P, N92V, S93F, F94D
With B8, the “IC50 GM-CSF, TF-1 proliferation” value with human CD131 [1] is over 1000 nM.

B9: 9A2-VR28 (antibody, V domains shown)
VH: B1 VH with S30V, H33R, M34V, L35H
VL: B1 VL with R30S, P31S, F32W, V33L
Take B9: in the experiment with human CD131 [1], the “IC50 GM-CSF, TF-1 proliferation” value came to 47.9 nM.

B10: 9A2-VR13 (antibody, V domains shown)
VH: B1 VH
VL: B1 VL with R30S, P31S, F32W, V33L, Q89G, Q90K, A91P, N92V, S93L, F94D
As for B10, the “IC50 GM-CSF, TF-1 proliferation” value in the experiment with human CD131 [1] is over 1000 nM.

B11: 9A2-VR36 (antibody, V domains shown)
VH: B1 VH with R52G, S53G, S54D, G55K, G56R, F57Q
VL: B1 VL with R30S, P31S, F32W, V33L
Take B11: the “IC50 GM-CSF, TF-1 proliferation” value with human CD131 [1] was 38.1 nM.

B12: 9A2-VR39.19 (antibody, V domains shown)
VH: EVQLLESGGGLVQPGGSLRLSCAASGFTFQYFNVIWVRQAPGKGLEWVSSINGRGRVTYYADSVKGRFTISRDNSKNTLYLQMNSLRAEDTAVYYCARFYDSFFDIWGQGTMVTVSS
VL: B1 VL with R30S, P31S, F32W, V33L
In the case of B12, the “IC50 GM-CSF, TF-1 proliferation” value in the experiment with human CD131 [2] worked out at 7.26 nM.

B13: 9A2-VR9 (antibody, V domains shown)
VH: B1 VH
VL: B1 VL with V33I, A34D
For B13, the “IC50 GM-CSF, TF-1 proliferation” value with human CD131 [1] stood at 72.7 nM.

B14: 9A2-VR32 (antibody, V domains shown)
VH: B1 VH with R52S, S53G, G55V, G56R, F57S
VL: B1 VL with R30S, P31S, F32W, V33L
As to B14, in the experiment with human CD131 [1], the “IC50 GM-CSF, TF-1 proliferation” value amounted to 31.2 nM.

B15: 9A2-VR31 (antibody, V domains shown)
VH: B1 VH with R52S, S53G, S54A, G55Q, G56W, F57S
VL: B1 VL with R30S, P31S, F32W, V33L
In the case of B15, the “IC50 GM-CSF, TF-1 proliferation” value in the experiment with human CD131 [1] is 233 nM.

B16: 9A2-VR27 (antibody, V domains shown)
VH: B1 VH with S30T, H33R, M34V, L35H
VL: B1 VL with R30S, P31S, F32W, V33L
For B16, in the experiment with human CD131 [1], the “IC50 GM-CSF, TF-1 proliferation” value amounted to 4.9 nM and the “pStat5 IC50 GM-CSF, TF-1 bla reporter” value stood at 8.5 nM.

B17: 9A2-VR46 (antibody, V domains shown)
VH: B1 VH with D101S, S102D, F103H, D105R, I106E
VL: B1 VL with R30S, P31S, F32W, V33L
In the case of B17, in the experiment with human CD131 [1], the “IC50 GM-CSF, TF-1 proliferation” value is 23.4 nM.

B18: 9A2-VR26 (antibody, V domains shown)
VH: B1 VH with S30I, H33R, M34V, L35H
VL: B1 VL with R30S, P31S, F32W, V33L
As for B18, in the experiment with human CD131 [1], the “IC50 GM-CSF, TF-1 proliferation” value was 4.6 nM and the “pStat5 IC50 GM-CSF, TF-1 bla reporter” value was 23.6 nM.

B19: 9A2-VR43 (antibody, V domains shown)
VH: B1 VH with D101S, S102D, F103H
VL: B1 VL with R30S, P31S, F32W, V33L
For the molecule B19, the “IC50 GM-CSF, TF-1 proliferation” value with human CD131 [1] is 53.7 nM.

B20: 9A2-VR8 (antibody, V domains shown)
VH: B1 VH
VL: B1 VL with I29V, V33I, A34S
As to B20, the “IC50 GM-CSF, TF-1 proliferation” value in the experiment with human CD131 [1] worked out at 57.7 nM.

B21: 9A2-VR37 (antibody, V domains shown)
VH: B1 VH with R52S, S53G, G55M, G56W, F57S
VL: B1 VL with R30S, P31S, F32W, V33L
B21: the “IC50 GM-CSF, TF-1 proliferation” value with human CD131 [1] worked out at 48.1 nM.

B22: 9A2-VR38 (antibody, V domains shown)
VH: B1 VH with R52N, S53G, S54M, G56A, F57T
VL: B1 VL with R30S, P31S, F32W, V33L
Consider B22, for which, in the experiment with human CD131 [1], the “IC50 GM-CSF, TF-1 proliferation” value was determined as 5 nM.

B23: 9A2-VR39.21 (antibody, V domains shown)
VH: B12 VH with Y31H, F32Y, N33H, V34T, I35V
VL: B1 VL with R30S, P31S, F32W, V33L
For B23, the “IC50 GM-CSF, TF-1 proliferation” value with human CD131 [2] stood at 0.96 nM.

B24: 9A2-VR44 (antibody, V domains shown)
VH: B1 VH with F103H
VL: B1 VL with R30S, P31S, F32W, V33L
Regarding B24, the “IC50 GM-CSF, TF-1 proliferation” value with human CD131 [1] amounted to 36.4 nM.

B25: 9A2-VR41 (antibody, V domains shown)
VH: B1 VH with R52N, S53G, S54K, G56W, F57T
VL: B1 VL with R30S, P31S, F32W, V33L
On to B25, for which the “IC50 GM-CSF, TF-1 proliferation” value with human CD131 [1] is 7 nM.

B26: 9A2-VR22 (antibody, V domains shown)
VH: B1 VH with S30Q, H31W, H33R, M34V, L35H
VL: B1 VL with R30S, P31S, F32W, V33L
Turning to B26, the “IC50 GM-CSF, TF-1 proliferation” value with human CD131 [1] was 39.9 nM.

B27: 9A2-VR33 (antibody, V domains shown)
VH: B1 VH with R52N, S53G, G56W, F57T
VL: B1 VL with R30S, P31S, F32W, V33L
As for B27, the “IC50 GM-CSF, TF-1 proliferation” value with human CD131 [1] came to 602 nM.

B28: 9A2-VR39.17 (antibody, V domains shown)
VH: B12 VH with Q30P, Y31F, F32Y, N33H, V34K, I35V
VL: B1 VL with R30S, P31S, F32W, V33L
Turning to B28, in the experiment with human CD131 [2], the “IC50 GM-CSF, TF-1 proliferation” value came out at 0.67 nM.

B29: 9A2-VR40 (antibody, V domains shown)
VH: B1 VH with R52N, S53G, S54Y, G56I, F57Q
VL: B1 VL with R30S, P31S, F32W, V33L
Regarding B29, the “IC50 GM-CSF, TF-1 proliferation” value with human CD131 [1] stood at 5.7 nM.

B30: 9A2-VR21 (antibody, V domains shown)
VH: B1 VH with S30M, H33R, M34V, L35H
VL: B1 VL with R30S, P31S, F32W, V33L
For B30, the “IC50 GM-CSF, TF-1 proliferation” value in the experiment with human CD131 [1] stood at 99.8 nM.

B31: 9A2-VR34 (antibody, V domains shown)
VH: B1 VH with R52S, S53G, G55H, G56F, F57P
VL: B1 VL with R30S, P31S, F32W, V33L
Turning to B31, the “IC50 GM-CSF, TF-1 proliferation” value with human CD131 [1] amounted to 184 nM.

B32: 9A2-VR16 (antibody, V domains shown)
VH: B1 VH
VL: B1 VL with R30S, P31S, F32W, V33L, Q89G, Q90I, A91P, N92V, S93L, F94G
As to B32, the “IC50 GM-CSF, TF-1 proliferation” value with human CD131 [1] was over 1000 nM.

B33: 9A2-VR42 (antibody, V domains shown)
VH: B1 VH with R52G, S53G, S54D, G55I, G56R, F57Q
VL: B1 VL with R30S, P31S, F32W, V33L
Consider B33, for which, in the experiment with human CD131 [1], the “IC50 GM-CSF, TF-1 proliferation” value was determined as 54.7 nM.

B34: 9A2-VR19 (antibody, V domains shown)
VH: B1 VH
VL: B1 VL with R30S, P31S, F32W, V33L, Q89G, Q90I, A91P, N92I, S93L, F94G
Turning to B34, the “IC50 GM-CSF, TF-1 proliferation” value with human CD131 [1] was over 1000 nM.

B35: 9A2-VR39.18 (antibody, V domains shown)
VH: B12 VH with Q30P, Y31G, F32Y, N33V, V34W
VL: B1 VL with R30S, P31S, F32W, V33L
Regarding B35, the “IC50 GM-CSF, TF-1 proliferation” value with human CD131 [2] was over 1000 nM.

B36: 9A2-VR23 (antibody, V domains shown)
VH: B1 VH with S30E, H31W, H33R, M34V, L35H
VL: B1 VL with R30S, P31S, F32W, V33L
With B36, in the experiment with human CD131 [1], the “IC50 GM-CSF, TF-1 proliferation” value amounted to 60 nM and the “pStat5 IC50 GM-CSF, TF-1 bla reporter” value is 24 nM.
